Reference: US20260000597A1 (priority 2018, published 2026)

Target: AchR (Homo sapiens, UniProt P02708)
Assay: ELISA of screened peptide phages on AchR versus streptavidin (OD450)
Assay type: binding
Settings: ELISA of selected 11-mer (L2) peptide phages on AchR, absorbance at 450 nm; Spep-2 positive control
Procedure: The output phages for the 4th and 5th rounds of biopanning in Example 13-1 were inoculated to E. coli, and plated on the agar plates so as to form 100-200 plaques per plate. The plaques were inoculated on 1 ml of an SB liquid medium containing 50 μg/ml of ampicillin by using a sterile tip, and cultured with shaking at 37° C. for 5 hours, followed by the addition of 30 μl of helper phages, and then cultured at 37° C. and 200 rpm for one day. The culture was centrifuged at 12,000 rpm for 2 minutes to collect supernatant, and 2% BSA was added to the supernatant, and used for phage screening.
In a 96-well ELISA plate, 5 μg/ml AchR or streptavidin was added at 50 μl per well, and left at 4° C. overnight. The next day, the solution in each well was discarded, followed by the addition of 2% BSA, and then blocked at room temperature for 2 hours. After the solution was all discarded, the wells were washed three times with Tris (20 mM, pH7). In addition, 100 μl of each of the phage solutions obtained from the above-prepared plaques was dispensed into wells and left at 30° C. for 1 hour. After the solution in the wells was all discarded, the wells were washed three times with Tris (20 mM, pH 7), and then the HRP-conjugated anti-M13 antibody diluted 1:2,000 was added at 100 μl per well, followed by culture at 30° C. for 1 hour. After the wells were washed three times with Tris (20 mM, pH7), 100 μl of tetramethylbenzidine was added to each well to induce a color development reaction, and then the reaction was stopped by the addition of 100 μl of 1M H2SO4, and the absorbance at 450 nm (OD450) was measured. The measured absorbance was converted into a ratio of AchR absorbance to streptavidin absorbance (AchR signal/streptavidin signal), and the results are shown in FIGS. 14 to 16.

AchR, sequence (P02708 21-457): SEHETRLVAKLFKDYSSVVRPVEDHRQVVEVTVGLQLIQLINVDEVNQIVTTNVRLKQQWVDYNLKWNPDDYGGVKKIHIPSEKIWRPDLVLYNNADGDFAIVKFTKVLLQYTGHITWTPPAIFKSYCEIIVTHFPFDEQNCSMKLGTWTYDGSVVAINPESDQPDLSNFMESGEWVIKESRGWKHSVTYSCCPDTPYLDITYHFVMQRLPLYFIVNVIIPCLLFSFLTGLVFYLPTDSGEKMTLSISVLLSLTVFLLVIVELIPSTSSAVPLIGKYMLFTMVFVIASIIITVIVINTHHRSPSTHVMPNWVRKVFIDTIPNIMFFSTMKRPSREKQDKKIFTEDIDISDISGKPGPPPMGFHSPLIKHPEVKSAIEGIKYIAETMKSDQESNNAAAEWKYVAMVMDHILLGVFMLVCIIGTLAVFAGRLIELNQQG

Row | Substance | OD
1 | L2-12 (AYAKARRWGQK; AchR binding peptide) [Peptide L2-12] | 0.83
2 | L2-13 (GGLKSKRLTTR; AchR binding peptide) [Peptide L2-13] | 0.855
3 | L2-14 (GMWKVRKTVFR; AchR binding peptide) [Peptide L2-14] | 0.746
4 | L2-15 (HTTRGKRCDPR; AchR binding peptide) [Peptide L2-15] | 0.705
5 | L2-16 (VDVRNKKSNNR; AchR binding peptide) [Peptide L2-16] | 0.77
6 | L2-17 (GLNRWRRCHHK; AchR binding peptide) [Peptide L2-17] | 0.72
7 | L2-18 (LQSRSKKYSVK; AchR binding peptide) [Peptide L2-18] | 0.753
8 | L2-19 (GWNRAKREESK; AchR binding peptide) [Peptide L2-19] | 0.727
9 | L2-20 (SWQKCKKAEVR; AchR binding peptide) [Peptide L2-20] | 0.675
10 | L2-21 (MVMKWKRWNQR; AchR binding peptide) [Peptide L2-21] | 0.719
11 | L2-22 (MMMRHKRCQYR; AchR binding peptide) [Peptide L2-22] | 0.75
12 | L2-23 (QTYRLKKPLQK; AchR binding peptide) [Peptide L2-23] | 0.832
13 | L2-24 (SFWRERKNGFR; AchR binding peptide) [Peptide L2-24] | 0.812
14 | L2-25 (RLERPRRELTK; AchR binding peptide) [Peptide L2-25] | 0.842
15 | L2-26 (APWRLKRAPQR; AchR binding peptide) [Peptide L2-26] | 0.809
16 | L2-27 (QGEKYRRTESK; AchR binding peptide) [Peptide L2-27] | 0.747
17 | L2-28 (CIWKSKRSPAK; AchR binding peptide) [Peptide L2-28] | 0.762
18 | L2-29 (AILKGKRIPNK; AchR binding peptide) [Peptide L2-29] | 0.756
19 | L2-30 (PTLKWRKPVLR; AchR binding peptide) [Peptide L2-30] | 0.746
20 | L2-31 (NNSRSKRFMNR; AchR binding peptide) [Peptide L2-31] | 0.737
21 | L2-32 (LYMRCKKQAPR; AchR binding peptide) [Peptide L2-32] | 0.64
22 | L2-33 (INYRCRKWVDK; AchR binding peptide) [Peptide L2-33] | 0.619
23 | L2-34 (VMDRDRKWWWR; AchR binding peptide) [Peptide L2-34] | 0.604
24 | L2-35 (NFTKLRKPGPR; AchR binding peptide) [Peptide L2-35] | 0.683
25 | L2-36 (FIPKMRKCSPR; AchR binding peptide) [Peptide L2-36] | 0.76
26 | L2-37 (TLWKVRKAYSR; AchR binding peptide) [Peptide L2-37] | 0.66
27 | L2-38 (ESEKIKRLSTR; AchR binding peptide) [Peptide L2-38] | 0.88

Row | Substance | OD
28 | L2-39 (LMTKNRRNSFR; AchR binding peptide) [Peptide L2-39] | 0.669
29 | L2-40 (PEVKVRRHSMR; AchR binding peptide) [Peptide L2-40] | 0.685
30 | L2-41 (AEVKDKKAYYK; AchR binding peptide) [Peptide L2-41] | 0.568
31 | L2-42 (YYAKSKKYMVR; AchR binding peptide) [Peptide L2-42] | 0.508
32 | L2-43 (LMDRTRRDMYK; AchR binding peptide) [Peptide L2-43] | 0.572
33 | L2-44 (NMGRHKRPFLK; AchR binding peptide) [Peptide L2-44] | 0.579
34 | L2-45 (WIYRGRKDVAK; AchR binding peptide) [Peptide L2-45] | 0.584
35 | L2-46 (CYWKAKRYPMR; AchR binding peptide) [Peptide L2-46] | 0.704
36 | L2-47 (IEDKGRRINPR; AchR binding peptide) [Peptide L2-47] | 0.707
37 | L2-48 (VSTKIKKEPQR; AchR binding peptide) [Peptide L2-48] | 0.629
38 | L2-49 (YPFKAKRPAEK; AchR binding peptide) [Peptide L2-49] | 0.734
39 | L2-50 (SADRNKRHMTR; AchR binding peptide) [Peptide L2-50] | 0.656
40 | L2-51 (SLYRQKRHDYK; AchR binding peptide) [Peptide L2-51] | 0.653
41 | L2-52 (LPSRPKKPVPK; AchR binding peptide) [Peptide L2-52] | 0.624
42 | L2-53 (PAWRCKRCQPK; AchR binding peptide) [Peptide L2-53] | 0.614
43 | L2-54 (HHWRFKREMPR; AchR binding peptide) [Peptide L2-54] | 0.609
44 | L2-55 (PACRSKRDWQK; AchR binding peptide) [Peptide L2-55] | 0.524
45 | L2-56 (FICKSRKFYGK; AchR binding peptide) [Peptide L2-56] | 0.713
46 | L2-57 (LEHKERKDDFR; AchR binding peptide) [Peptide L2-57] | 0.795
47 | L2-58 (ANPKNRKDNLR; AchR binding peptide) [Peptide L2-58] | 0.701
48 | L2-59 (FGVKYRRVICR; AchR binding peptide) [Peptide L2-59] | 0.69
49 | L2-60 (HADKFRRFNMR; AchR binding peptide) [Peptide L2-60] | 0.697
50 | L2-61 (PTIRVRKSDDR; AchR binding peptide) [Peptide L2-61] | 0.688
51 | L2-62 (NLHKPKRDLPK; AchR binding peptide) [Peptide L2-62] | 0.736
52 | L2-63 (IDGKWRKICTR; AchR binding peptide) [Peptide L2-63] | 0.742
53 | L2-64 (SPFRAKRQDVR; AchR binding peptide) [Peptide L2-64] | 0.683
54 | L2-65 (PLWKTRKIEPR; AchR binding peptide) [Peptide L2-65] | 0.731

Row | Substance | OD
55 | L2-66 (PNYKWRKSRRR; AchR binding peptide) [Peptide L2-66] | 0.798
56 | L2-67 (KTGRSKRHRWR; AchR binding peptide) [Peptide L2-67] | 0.696
57 | L2-68 (GPDKSRRNLHR; AchR binding peptide) [Peptide L2-68] | 0.721
58 | L2-69 (WCCKTKRAVMK; AchR binding peptide) [Peptide L2-69] | 0.676
59 | L2-70 (QLLKMRKALSR; AchR binding peptide) [Peptide L2-70] | 0.67
60 | L2-71 (PYLRSKRFPPR; AchR binding peptide) [Peptide L2-71] | 0.651
61 | L2-72 (APHKWRKQEQR; AchR binding peptide) [Peptide L2-72] | 0.638
62 | L2-73 (PPFKFRKPLGR; AchR binding peptide) [Peptide L2-73] | 0.662
63 | L2-74 (CIMRVKRMWWK; AchR binding peptide) [Peptide L2-74] | 0.651
64 | L2-75 (YILRDKKVPLK; AchR binding peptide) [Peptide L2-75] | 0.539
65 | L2-76 (PWVRIRKMASR; AchR binding peptide) [Peptide L2-76] | 0.725
66 | L2-77 (VADRQKKTAPK; AchR binding peptide) [Peptide L2-77] | 0.733
67 | L2-78 (HHNRMKKQYHR; AchR binding peptide) [Peptide L2-78] | 0.718
68 | L2-79 (EGAKYRRDGWR; AchR binding peptide) [Peptide L2-79] | 0.689
69 | L2-80 (FWDRVKRNPSK; AchR binding peptide) [Peptide L2-80] | 0.685
70 | L2-81 (TMWRQRKMSCK; AchR binding peptide) [Peptide L2-81] | 0.705
71 | L2-82 (PDTRWKRVLFK; AchR binding peptide) [Peptide L2-82] | 0.693
72 | L2-83 (HQQKCKKTTTK; AchR binding peptide) [Peptide L2-83] | 0.65
73 | L2-84 (PWHKGKRDFDR; AchR binding peptide) [Peptide L2-84] | 0.574
74 | L2-85 (VFVKWRRQMMR; AchR binding peptide) [Peptide L2-85] | 0.768
75 | L2-86 (SQWKIRKRLIR; AchR binding peptide) [Peptide L2-86] | 0.701
76 | L2-87 (EWHKVRRVYAK; AchR binding peptide) [Peptide L2-87] | 0.716
77 | L2-88 (NAMRTKRMSFK; AchR binding peptide) [Peptide L2-88] | 0.744
78 | L2-89 (PPFKFRKPLGR; AchR binding peptide) [Peptide L2-89] | 0.749
79 | L2-90 (TSVKKRKQRLR; AchR binding peptide) [Peptide L2-90] | 0.765
